Substrate in series [1]: CC(=O)N[C@H]1[C@@H](Oc2ccc3c(C)cc(=O)oc3c2)O[C@H](CO)[C@@H](O)[C@@H]1O
The experiment in a line: purified protein. As to conditions: pH 5.0; 30.0 °C.

Substrate in series [2]: CC(=O)N[C@H]1[C@@H](O[C@H]2[C@H](O)[C@@H](O)[C@H](OCCCNC(=O)OCC3c4ccccc4-c4ccccc43)O[C@@H]2C(=O)O)O[C@H](CO)[C@@H](O)[C@@H]1O
The experiment in a line: purified protein. The conditions noted are these: pH 5.0; 30.0 °C.

B1: (Bacteroides thetaiotaomicron VPI-5482) (protein)
chain: TGPPVLKEMCQRLFPRHAQSFLFELLTDSIDTDRFILESSQGKIRIKGNNRNSLAAGLNHYLKNYCHTHVSWYASETVEMPDVLPEIPQPVYIRSKCDNRFFLNYCTFGYTMPYWKWQDWERLIDWMALNGVTMPLAITGQESIWYKVWTDMGLSDEQVRSYFTGPAHLPWHRMSNVDFWQSPLPQSWLKDQEELQKRILEREREFDMTPVLPAFAGHVPAELKTIYPNAKIYQMSQWGGFDEKYRSHFIDPMDSLYSIIQRRFLEEQTKVYGTDHIYGIDPFNEVDSPDWSEDFLANVSSKIYESIHQVDSAAQWLQMTWMFFYDKKKWTQPRIRSFLKAVPDNKLILLDYYCDHTEIWRNTEKYYGNPYIWCYLGNFGGNTMIAGNLNDIDFKIKRLFKEGGDNVYGLGATLEGFDVNPLMYEFVFDQAWDYPVTTDQWITNWSMCRGGNQDANIIKAWRALHQKIYTEHATCGQSVLMNARPRLTGTKSWNTNPGIHYANNDLWQIWKELLKARNINNSDFRFDVINIGRQVLGNLFSEYRDQFTACYNRKDTTGMREWSTRMDNLLLDVDRLLSCDATLSIGKWLQDARNCGATVSEKDYYEENARCILTVWGQQDTQLNDYANRGWGGLTRSFYRERWKRFTDGVIAAVSEDKPFDEDKFHQDITQFEYNWTLQKDSFPIVSEEDPIQIADSLILKYDTYFTKAQ
The term Km denotes the concentration of substrate that gives half-maximal velocity. As a reminder, the kcat is the number of substrate molecules converted per active site and unit of time at saturation. As usually defined, the kcat/Km is the second-order rate constant that governs catalysis at low substrate concentration. Consider B1, for which, in the series “purified protein [1]”, the Km result is on record as “(4.6 ± 0.4) × 10^−3 mM”, the kcat was 3.68 ± 0.07 s⁻¹ and the kcat/Km was 800000 M⁻¹ s⁻¹. Further, in “purified protein [2]”, the Km is 2190 ± 160 µM, the kcat worked out at 3.57 ± 0.09 s⁻¹ and the kcat/Km was found to be 1630 M⁻¹ s⁻¹.

The values are drawn from paper PMC8225759, “A GH89 human α-N-acetylglucosaminidase (hNAGLU) homologue from gut microbe Bacteroides thetaiotaomicron capable of hydrolyzing heparosan oligosaccharides” (AMB Express, 2021).
